Assay results from patent US20120321699A1 (published 2012).

Biological target: HV00044 (6240 TZ5 140C) (HIV-1)
Experiment: SPR

B1: CH01 (antibody, V domains shown)
VH: EVQLVESGANVVRPGGSLRLSCKASGFIFENFGFSWVRQAPGKGLQWVAGLNWNGGDTRYADSVKGRFRMSRDNSRNFVYLDMDKVGVDDTAFYYCARGTDYTIDDAGIHYQGSGTFWYFDLWGRGTLVSVSS
VL: EIVLTQSPGTLSLSPGERATLSCRASHNVHPKYFAWYQQKPGQSPRLLIYGGSTRAAGIPGKFSGSGSGTDFTLTISRVDPEDFAVYYCQQYGGSPYTFGQGTKVEI
Kd: 300 nM
